Test results published in IntAct's records for PubMed 19617556.

B1: DCN1-like protein 3 (Homo sapiens), Q8IWE4 (parent)
chain: MGQCVTKCKNPSSTLGSKNGDREPSNKSHSRRGAGHREEQVPPCGKPGGDILVNGTKKAEAATEACQLPTSSGDAGRESKSNAEESSLQRLEELFRRYKDEREDAILEEGMERFCNDLCVDPTEFRVLLLAWKFQAATMCKFTRKEFFDGCKAISADSIDGICARFPSLLTEAKQEDKFKDLYRFTFQFGLDSEEGQRSLHREIAIALWKLVFTQNNPPVLDQWLNFLTENPSGIKGISRDTWNMFLNFTQVIGPDLSNYSEDEAWPSLFDTFVEWEMERRKREGEGRGALSSGPEGLCPEEQT

Variants of: B1
Details: with cul3_human CUL3, Q13618

Variant | effect of a mutation on the interaction
D241A;A265R;D271A | disrupting interaction strength
